The target in test [1] is human TrkB (GenBank Acc. No. NP_001018074.1) expressed in CHO cells (human, UniProt Q16620 32-822). The experiment in a line: cell-based or functional assay.
Test [2] deals with T1, recombinant human TfR (r human TfR: Sino Biological Inc.) (human, UniProt P02786 89-760).
T1 construct: Bought product; also called r human TfR-ECD (Histag); hTfR; not shown: histidine tag attached to the N-terminus
Nature of the test: BLI (Octet RED96), method of Example 7, His-tagged TfR ECD on Ni-NTA sensor. As for the experimental part:
(§1) Each of the antibodies (anti-hTfR antibody Nos. 1 to 14) purified above was subjected to 2-fold dilution steps with HBS-P+(10 mM HEPES containing 150 mM NaCl, 50 μM EDTA and 0.05% Surfactant P20) to prepare antibody solutions of 7 different concentrations, 0.78125 to 50 nM (0.117 to 7.5 μg/mL). These antibody solutions were used as the sample solutions. The r human and r monkey TfRs were respectively diluted with HBS-P+ to prepare 25 μg/mL solutions, which were used as r human TfR-ECD (Histag) solution and r monkey TfR-ECD (Histag) solution, respectively.
(§2) Each of the sample solutions prepared above by 2-fold dilution steps was added, 200 μL/well, to a 96-well plate, black (Greiner Bio-One Inc.). Each of the r human TfR-ECD (Histag) solution and the r monkey TfR-ECD (Histag) solutions prepared above was added, 200 μL/well, to predetermined wells. To respective wells for baseline, dissociation and washing were added HBS-P+, 200 μL/well. To wells for regeneration were added 10 mM Glycine-HCl, pH 1.7, 200 μL/well. To wells for activation was added 0.5 mM NiCl₂ solution, 200 μL/well. The plate and biosensor (Biosensor/Ni-NTA: ForteBio Inc., a division of Pall Corporation) were set in the prescribed positions of Octet RED96. […] The measurement was performed at 25 to 30° C.
(§3) The affinity of the humanized anti-hTfR antibodies obtained in Example 13 to human and monkey TfRs was measured by the method described in Example 7.
Background: Biolayer interferometry detects binding as a change in optical thickness at a sensor tip.

The target of test [3] is T2, recombinant monkey TfR (r monkey TfR: Sino Biological Inc.) (cynomolgus monkey (Macaca fascicularis), UniProt Q5RDH6 89-760 (Pongo abelii entry)).
T2 construct: Bought product; also called r monkey TfR-ECD (Histag); cynomolgus monkey TfR; not shown: histidine tag attached to the N-terminus
T2 chain: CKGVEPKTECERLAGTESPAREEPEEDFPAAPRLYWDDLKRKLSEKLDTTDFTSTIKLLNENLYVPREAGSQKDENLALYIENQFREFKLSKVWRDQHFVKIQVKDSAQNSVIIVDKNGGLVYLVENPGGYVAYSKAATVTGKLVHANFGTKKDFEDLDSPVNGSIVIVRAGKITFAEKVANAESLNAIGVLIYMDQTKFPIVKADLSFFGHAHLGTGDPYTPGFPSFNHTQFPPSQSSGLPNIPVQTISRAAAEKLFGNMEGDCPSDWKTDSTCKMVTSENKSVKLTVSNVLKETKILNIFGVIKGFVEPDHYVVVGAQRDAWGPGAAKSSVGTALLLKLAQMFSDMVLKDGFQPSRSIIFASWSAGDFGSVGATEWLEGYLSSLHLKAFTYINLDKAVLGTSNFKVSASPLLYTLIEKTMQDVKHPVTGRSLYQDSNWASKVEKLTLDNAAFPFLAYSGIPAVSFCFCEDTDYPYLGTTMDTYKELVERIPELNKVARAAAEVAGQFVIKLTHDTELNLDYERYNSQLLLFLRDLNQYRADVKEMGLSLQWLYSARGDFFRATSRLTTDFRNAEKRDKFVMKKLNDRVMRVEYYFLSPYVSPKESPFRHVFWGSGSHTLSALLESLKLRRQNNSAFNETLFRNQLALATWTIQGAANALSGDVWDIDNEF
Described as above. The protocol:
as §1, §2, §3

In test [4] the target is T1, recombinant human TfR (r human TfR: …). The experiment in a line: ELISA, plate-coated recombinant TfR, detection with biotin-labeled anti-BDNF antibody and streptavidin-HRP. The protocol:
(§4) The affinity of the hBDNF-anti-hTfR antibody fusion protein to hTfR was measured using an ELISA method. The measurement by the ELISA method was generally carried out by the following method. As human TfR, recombinant human TfR (r human TfR: Sino Biological Inc.) having the amino acid sequence of the extracellular region of hTfR, ranging from the cysteine residue at the position 89th from the N-terminal side to the phenylalanine at the C-terminus in the amino acid sequence set forth as SEQ ID NO:1, to the N-terminus of which a histidine tag was added, was used. As monkey TfR, recombinant monkey TfR (r monkey TfR: Sino Biological Inc.) having the amino acid sequence of the extracellular region of cynomolgus monkey hTfR, ranging from the cysteine residue at the position 89th from the N-terminal side to the phenylalanine at the C-terminus in the amino acid sequence set forth as SEQ ID NO:2, to the N-terminus of which a histidine tag was added, was used. The measurement was carried out on the hBDNF-anti-hTfR antibodies 3, 4 and 6 among the hBDNF-humanized anti-hTfR antibody fusion proteins obtained in Example 17.
(§5) Recombinant human and monkey TfR (Sino Biological Inc.) were each diluted to 0.5 μg/mL, and the diluted solution was then added in an amount of 100 μL to each well of a 96-well plate (Nunc Inc), followed by leaving it to stand for 1 hour. […]
Background: In an ELISA, binding on a coated surface is turned into a signal by an enzyme label.

For test [5], the target named is T2, recombinant monkey TfR (r monkey TfR: …). The test is described as above. As for the experimental part: as §4, §5
The target in test [6] is T1, recombinant human TfR (r human TfR: …). Nature of the test: ELISA on plate-coated recombinant TfR ('the present measurement method' of Example 18-2).
The target of test [7] is T2, recombinant monkey TfR (r monkey TfR: …). The description is as above.

Bounds are passed on as bounds.

Chain of human TrkB (GenBank Acc. No. NP_001018074.1) expressed in CHO cells (Q16620 32-822): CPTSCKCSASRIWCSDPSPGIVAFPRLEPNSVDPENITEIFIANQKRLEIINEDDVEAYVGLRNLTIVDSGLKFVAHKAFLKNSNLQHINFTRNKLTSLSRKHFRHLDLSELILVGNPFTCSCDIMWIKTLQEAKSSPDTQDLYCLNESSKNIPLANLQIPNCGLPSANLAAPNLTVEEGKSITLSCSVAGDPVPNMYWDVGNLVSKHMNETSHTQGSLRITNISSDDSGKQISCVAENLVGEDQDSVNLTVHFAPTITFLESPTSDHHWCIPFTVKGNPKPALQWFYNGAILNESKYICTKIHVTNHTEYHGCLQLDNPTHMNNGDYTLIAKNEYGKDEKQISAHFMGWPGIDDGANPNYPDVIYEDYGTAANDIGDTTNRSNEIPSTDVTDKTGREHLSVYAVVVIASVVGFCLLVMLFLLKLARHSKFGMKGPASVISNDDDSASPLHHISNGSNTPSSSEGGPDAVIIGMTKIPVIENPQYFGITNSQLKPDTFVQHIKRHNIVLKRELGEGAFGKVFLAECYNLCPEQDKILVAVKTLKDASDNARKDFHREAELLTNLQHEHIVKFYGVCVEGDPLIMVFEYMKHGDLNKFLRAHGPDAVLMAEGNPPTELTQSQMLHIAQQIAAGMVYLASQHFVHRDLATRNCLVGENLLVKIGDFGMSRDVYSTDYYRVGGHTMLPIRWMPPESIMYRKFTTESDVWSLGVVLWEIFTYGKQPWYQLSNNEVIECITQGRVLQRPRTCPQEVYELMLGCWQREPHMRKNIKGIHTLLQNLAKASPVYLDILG

B1: hBDNF-anti-hTfR antibody 5 (other)
chain: HSDPARRGELSVCDSISEWVTAADKKTAVDMSGGTVTVLEKVPVSKGQLKQYFYETKCNPMGYTKEGCRGIDKRHWNSQCRTTQSYVRALTMDSKKRIGWRFIRIDTSCVCTLTIKRGRGSGGGGSGGGGSGGGGSGGGGSGGGGSEVQLVQSGAEVKKPGESLKISCKGSGYSFTNYWLGWVRQMPGKGLEWMGDIYPGGDYPTYSEKFKVQVTISADKSISTAYLQWSSLKASDTAMYYCARSGNYDEVAYWGQGTLVTVSSGGGGSGGGGSGGGGSDIVMTQTPLSLSVTPGQPASISCRSSQSLVHSNGNTYLHWYLQKPGQSPQLLIYKVSNRFSGVPDRFSGSGSGTDFTLKISRVEAEDVGVYYCSQSTHVPWTFGQGTKVEIK
As to B1, the “BDNF activity (TrkB agonistic EC50, nmol/L)” value (shortened to “BDNF activity”) in test [1] came out at 0.092 nmol/L.

B2: humanized anti-hTfR antibody No. 1 (antibody, human IgG1, kappa, V domains shown)
VH: EVQLVESGGGLVQPGGSLRLSCAASGLTFSNYGMSWVRQAPGKGLELVANINTNGGSTYYPDSVKGRFTISRDNAKNSLYLQMNSLRAEDTAVYYCTNNRYDEDYWGQGTLVTVSS
VL: DIQVTQSPSFLSASVGDRVTITCKASQDVNSAVAWFQQKPGKAPKLLIYWTSTRHTGVPDRFSGSGSGTVYTLTISSLQPEDFATYYCQQHYSTPRTFGGGTKVEIKR
notes: IgG1; expressed in CHO-K1, purified on Protein A
What is called Kd is the concentration at which binding is half-saturated. The koff is a measure of how fast the partners let go of each other. A word on the kon: it is the rate constant with which the complex forms. For B2, in test [2], the Kd was below 0.001 nM, the koff was below 1e-07 s⁻¹ and the kon was determined as 393000 M⁻¹ s⁻¹. Moreover, in test [3], the Kd is below 0.001 nM, the koff is below 1e-07 s⁻¹ and the kon is 253000 M⁻¹ s⁻¹.

B3: humanized anti-hTfR antibody No. 2 (antibody, human IgG1, kappa, V domains shown)
VH: QVQLVQSGAEVKKPGASVKVSCKASGYTFTDYVMHWVRQAPGQGLEWIGVISTYYGHGSYNQRFKGRATMTVDKSISTAYMELVRLRSDDTAVYYCVRGGYGSSSLAGNFDVWGQGTTVTVSS
VL: EIVLTQSPDFQSVTPKEKVTITCRASQSISNNLQWYQQKPDQSPKLLIKYASQSISGIPSRFSGSGSGTDFTLTINSLEAEDAATYLCQQSNSWPRTFGQGTKVEIKR
notes: as for B2
As for B3, in test [2], the equilibrium dissociation constant (Kd) is below 0.001 nM, the koff was below 1e-07 s⁻¹ and the kon amounted to 197000 M⁻¹ s⁻¹. Moreover, in test [3], the Kd is 0.0755 nM, the koff was 3.67e-05 s⁻¹ and the kon turned out to be 487000 M⁻¹ s⁻¹.

B4: hBDNF-anti-hTfR antibody 6 (other)
heavy: HSDPARRGELSVCDSISEWVTAADKKTAVDMSGGTVTVLEKVPVSKGQLKQYFYETKCNPMGYTKEGCRGIDKRHWNSQCRTTQSYVRALTMDSKKRIGWRFIRIDTSCVCTLTIKRGRGSGGGGSGGGGSGGGGSGGGGSGGGGSEVQLVQSGAEVKKPGESLKISCKGSGYSFTNYWLGWVRQMPGKGLEWMGDIYPGGDYPTYSEKFKVQVTISADKSISTAYLQWSSLKASDTAMYYCARSGNYDEVAYWGQGTLVTVSSASTKGPSVFPLAPSSKSTSGGTAALGCLVKDYFPEPVTVSWNSGALTSGVHTFPAVLQSSGLYSLSSVVTVPSSSLGTQTYICNVNHKPSNTKVDKKVEPKSCDKTHT
light: DIVMTQTPLSLSVTPGQPASISCRSSQSLVHSNGNTYLHWYLQKPGQSPQLLIYKVSNRFSGVPDRFSGSGSGTDFTLKISRVEAEDVGVYYCSQSTHVPWTFGQGTKVEIKRTVAAPSVFIFPPSDEQLKSGTASVVCLLNNFYPREAKVQWKVDNALQSGNSQESVTEQDSKDSTYSLSSTLTLSKADYEKHKVYACEVTHQGLSSPVTKSFNRGEC
notes: also called fusion protein of hBDNF and humanized anti-hTfR antibody Fab; product of pE-neo (BDNF-Fab HC-1) and pE-hygr (LC3)
A word on the EC50: it is the concentration needed to bring the measured effect to its halfway point. Turning to B4, the “BDNF activity” value in test [1] was found to be 0.16 nmol/L. Also, the EC50 in test [4] is 0.63 nM; in test [5], 2.3 nM.

B5: humanized anti-hTfR antibody No. 3 (antibody, human IgG1, kappa)
heavy: not shown
light: DIVMTQTPLSLSVTPGQPASISCRSSQSLVHSNGNTYLHWYLQKPGQSPQLLIYKVSNRFSGVPDRFSGSGSGTDFTLKISRVEAEDVGVYYCSQSTHVPWTFGQGTKVEIKRTVAAPSVFIFPPSDEQLKSGTASVVCLLNNFYPREAKVQWKVDNALQSGNSQESVTEQDSKDSTYSLSSTLTLSKADYEKHKVYACEVTHQGLSSPVTKSFNRGEC
notes: as for B2
As for B5, in test [2], the Kd was below 0.001 nM, the koff was below 1e-07 s⁻¹ and the kon is 1.19e+06 M⁻¹ s⁻¹. In addition, in test [3], the equilibrium dissociation constant (Kd) was determined as 1.12 nM, the koff was 0.000676 s⁻¹ and the kon worked out at 603000 M⁻¹ s⁻¹. Also, in test [6], the concentration giving a half-maximal response (EC50) came to 0.09 nM. Also, the EC50 in test [7] was found to be 0.25 nM.

B6: hBDNF-anti-hTfR antibody 7 (other)
heavy: HSDPARRGELSVCDSISEWVTAADKKTAVDMSGGTVTVLEKVPVSKGQLKQYFYETKCNPMGYTKEGCRGIDKRHWNSQCRTTQSYVRALTMDSKKRIGWRFIRIDTSCVCTLTIKRGRGSGGGGSGGGGSGGGGSGGGGSGGGGSEVQLVQSGAEVKKPGESLKISCKGSGYSFTNYWLGWVRQMPGKGLEWMGDIYPGGDYPTYSEKFKVQVTISADKSISTAYLQWSSLKASDTAMYYCARSGNYDEVAYWGQGTLVTVSSASTKGPSVFPLAPSSKSTSGGTAALGCLVKDYFPEPVTVSWNSGALTSGVHTFPAVLQSSGLYSLSSVVTVPSSSLGTQTYICNVNHKPSNTKVDKKVEPKSCDKTHT
light: DIVMTQTPLSLSVTPGQPASISCRSSQSLVHSNGNTYLHWYLQKPGQSPQLLIYKVSNRFSGVPDRFSGSGSGTDFTLKISRVEAEDVGVYYCSQSTHVPWTFGQGTKVEIKRTVAAPSVFIFPPSDEQLKSGTASVVCLLNNFYPREAKVQWKVDNALQSGNSQESVTEQDSKDSTYSLSSTLTLSKADYEKHKVYACEVTHQGLSSPVTKSFNRGEC
In the case of B6, the “BDNF activity” value in test [1] was 0.23 nmol/L.

The record behind these values is US20240262926A1 (published 2024).
